Literature values as cited in patent US10385327B2, “Enhanced E. coli for the production of fatty acids and method of producing the same” (University of Puerto Rico, priority 2012, dated 2019).

B1: E. coli FabA dehydratase: DH enzyme involved in fatty acid biosynthesis in E. coli (protein, UniProt P0A6Q3 2-172, looked up)
3-hydroxydecanoyl-[acyl-carrie …: VDKRESYTKEDLLASGRGELFGAKGPQLPAPNMLMMDRVVKMTETGGNFDKGYVEAELDINPDLWFFGCHFIGDPVMPGCLGLDAMWQLVGFYLGWLGGEGKGRALGVGEVKFTGQVLPTAKKVTYRIHFKRIVNRRLIMGLADGEVLVDGRLIYTASDLKVGLFQDTSAF
B2: FAS 1-1168 construct: Fatty Acid Synthase construct of Pasta et al., 2007, literature comparator for dehydratase specific activity (protein, UniProt P49327 1-1168, looked up, fragment)
chain: MEEVVIAGMSGKLPESENLQEFWDNLIGGVDMVTDDDRRWKAGLYGLPRRSGKLKDLSRFDASFFGVHPKQAHTMDPQLRLLLEVTYEAIVDGGINPDSLRGTHTGVWVGVSGSETSEALSRDPETLVGYSMVGCQRAMMANRLSFFFDFRGPSIALDTACSSSLMALQNAYQAIHSGQCPAAIVGGINVLLKPNTSVQFLRLGMLSPEGTCKAFDTAGNGYCRSEGVVAVLLTKKSLARRVYATILNAGTNTDGFKEQGVTFPSGDIQEQLIRSLYQSAGVAPESFEYIEAHGTGTKVGDPQELNGITRALCATRQEPLLIGSTKSNMGHPEPASGLAALAKVLLSLEHGLWAPNLHFHSPNPEIPALLDGRLQVVDQPLPVRGGNVGINSFGFGGSNVHIILRPNTQPPPAPAPHATLPRLLRASGRTPEAVQKLLEQGLRHSQDLAFLSMLNDIAAVPATAMPFRGYAVLGGERGGPEVQQVPAGERPLWFICSGMGTQWRGMGLSLMRLDRFRDSILRSDEAVKPFGLKVSQLLLSTDESTFDDIVHSFVSLTAIQIGLIDLLSCMGLRPDGIVGHSLGEVACGYADGCLSQEEAVLAAYWRGQCIKEAHLPPGAMAAVGLSWEECKQRCPPGVVPACHNSKDTVTISGPQAPVFEFVEQLRKEGVFAKEVRTGGMAFHSYFMEAIAPPLLQELKKVIREPKPRSARWLSTSIPEAQWHSSLARTSSAEYNVNNLVSPVLFQEALWHVPEHAVVLEIAPHALLQAVLKRGLKPSCTIIPLMKKDHRDNLEFFLAGIGRLHLSGIDANPNALFPPVEFPAPRGTPLISPLIKWDHSLAWDVPAAEDFPNGSGSPSAAIYNIDTSSESPDHYLVDHTLDGRVLFPATGYLSIVWKTLARALGLGVEQLPVVFEDVVLHQATILPKTGTVSLEVRLLEASRAFEVSENGNLVVSGKVYQWDDPDPRLFDHPESPTPNPTEPLFLAQAEVYKELRLRGYDYGPHFQGILEASLEGDSGRLLWKDNWVSFMDTMLQMSILGSAKHGLYLPTRVTAIHIDPATHRQKLYTLQDKAQVADVVVSRWLRVTVAGGVHISGLHTESAPRRQQEQQVPILEKFCFTPHTEEGCLSERAALQEELQLCKGLVQALQTKVTQQGLKMVVPGLDGAQ

Key:
[1] = tested on: E. coli BL21-DE3-CodonPlus (RIL) cells; details: previous work by others
[2] = literature value for FAS dehydratase construct

Molecule | effect of overexpression on production of fatty acids in E. coli [1] | specific activity reported (Pasta et al., 2007) [2]
B1 | does not increase the production of fatty acids | 
B2 |  | 204 mol product/(min*mol enzyme)
